Our source for the stoichiometry N and Kd values is doi:10.1101/2025.05.30.657017.

Test [1] addresses MtrR-His6 constitutively expressed in M. mazei (pRS2087) (Methanosarcina mazei Gö1). Nature of the test: IMAC purification and western blot. For orientation: A western blot detects proteins with antibodies after separation by electrophoresis.
Test [2] addresses strep-tagged soluble domain of the MtrA subunit (M1 - S168), RED labeled (Methanosarcina mazei) (UniProt O59640). Nature of the test: MST.
Test [3] has as its target MtrR, endogenous in M. mazei (Methanosarcina mazei (endogenous in M. mazei)). Nature of the test: western blot of the strep-tactin eluate.

Chain of UniProt O59640 (O59640 1-168): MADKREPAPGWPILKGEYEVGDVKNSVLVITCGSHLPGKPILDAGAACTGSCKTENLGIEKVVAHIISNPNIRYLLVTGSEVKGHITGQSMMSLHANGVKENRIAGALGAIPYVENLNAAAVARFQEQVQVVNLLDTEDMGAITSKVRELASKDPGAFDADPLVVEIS

The term stoichiometry N denotes a count of units in the complex or per binding partner. Regarding “MtrR-His6 constitutively expressed in M. mazei (pRS2087) (natural protein)”, the stoichiometry N in test [1] turned out to be 2.
By Kd is commonly meant a measure of binding affinity in units of concentration. Substance “MtrR-His6 (small protein MtrR encoded by small ORF16, C-terminal his-tag), heterologously expressed in E. coli (natural protein)” returned a Kd in test [2] of 110 nM.
In turn, “MtrR, endogenous in M. mazei (natural protein)” came in with a stoichiometry N in test [3] of 2.
